Source: PMC3103430, “RecA Proteins from Deinococcus geothermalis and Deinococcus murrayi - Cloning, Purification and Biochemical Characterisation”

Columns and labels:
DmuRecA = DmuRecA (Deinococcus murrayi DSM 11303, UniProt E7CG23 1-359); experiment: EMSA; 8-10 mM Mg2+ (most efficient), ATPgS + ATP, 37 C; 20 mM potassium phosphate pH 7.5, 0-10 mM MgCl2, 110 uM ATPgS + 300 uM ATP (ssDNA, 9 uM RecA) or 180 uM ATPgS + 500 uM ATP (dsDNA, 12 uM RecA), 30 min at 37 C (25-75 C series for ssDNA), 0.8% agarose gel; conditions: protein: recombinant; tags: none (native start and stop codons, NdeI/XhoI in pET-30Ek/LIC); label: 5'-fluorescein
DgeRecA = DgeRecA (Deinococcus geothermalis DSM 11302, UniProt Q1IWF2 1-358); experiment: as above; conditions: protein: recombinant; tags: none (native start and stop codons, NdeI/HindIII in pET-30Ek/LIC); label: 5'-fluorescein
DgeRecA, sequence (Q1IWF2 whole entry): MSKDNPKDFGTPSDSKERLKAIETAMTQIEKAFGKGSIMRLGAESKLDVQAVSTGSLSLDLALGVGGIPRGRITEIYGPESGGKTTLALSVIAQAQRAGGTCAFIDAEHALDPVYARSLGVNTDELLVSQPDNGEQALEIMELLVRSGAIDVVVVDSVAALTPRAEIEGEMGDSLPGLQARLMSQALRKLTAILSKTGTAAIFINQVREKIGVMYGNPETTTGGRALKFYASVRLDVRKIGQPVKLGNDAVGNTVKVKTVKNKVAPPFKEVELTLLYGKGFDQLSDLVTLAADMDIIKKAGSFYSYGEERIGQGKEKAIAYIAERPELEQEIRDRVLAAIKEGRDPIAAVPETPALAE

TTTTTTTTTTTTTTTTTTTTTTTTTTTTTTTTTTT (ssDNA) [oligo(dT)35]: binds (DmuRecA); binds (DgeRecA).
